Molecular target: Francisella tularensis ssp. holarctica macrophage locus protein A (MglA) (F. tularensis ssp. holarctica) (UniProt Q5NFG1)
Experiment: cross-linking + SEC

Substance “Francisella tularensis ssp. holarctica macrophage locus protein A (MglA) (from UniProt Q5NFG1 1-205) (natural protein)” has a stoichiometry N of 2.
